1 molecule from publication PMC5467237 can be followed below.

The target of the assay is T1, hCHCHD2 WT expressed in CHCHD2-/- MEFs (human), Q9Y6H1.
T1 chain: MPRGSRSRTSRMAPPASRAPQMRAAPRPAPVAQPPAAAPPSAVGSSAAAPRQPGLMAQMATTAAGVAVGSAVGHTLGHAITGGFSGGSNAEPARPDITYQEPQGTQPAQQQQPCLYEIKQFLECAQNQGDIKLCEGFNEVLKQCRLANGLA
The experiment in a line: cross-linking; hCHCHD2-expressing MEFs treated with or without 0.5 μg/ml DSP in PBS for 20 min at RT, lysed, western blot with anti-CHCHD2; ratio of monomer signals to total signals. The conditions noted are these: remark: other sources report otherwise.

B1: hCHCHD2 WT expressed in CHCHD2-/- MEFs, Q9Y6H1 1-151 (natural protein)
chain: T1 chain
Usually stoichiometry N stands for a count of units in the complex or per binding partner. With B1, the monomer form as share of total CHCHD2 signals (% of total CHCHD2 signals) is below 50 and the stoichiometry N was found to be 2.
